Data taken from patent US20220041692A1.
Bridge positions count the residues as written; N and C are the ends. Ends that are not written are not given here.

Target: polyclonal mouse anti-TSHR antibodies contained in sera from Ad-TSHR-immunized mice
Assay: competition ELISA: sera pre-incubated with peptide 19, binding of polyclonal anti-TSHR antibodies to coated TSHR-Fc

IC50: 20 nM
B1: cyclic peptide 19 (peptide)
peptide: CHQEEDFRVTC
modifications: disulfide 1-11
